Results from IntAct's records for PubMed 30285739.

B1: WW domain-containing oxidoreductase (Homo sapiens), Q9NZC7 (parent)
chain: MAALRYAGLDDTDSEDELPPGWEERTTKDGWVYYANHTEEKTQWEHPKTGKRKRVAGDLPYGWEQETDENGQVFFVDHINKRTTYLDPRLAFTVDDNPTKPTTRQRYDGSTTAMEILQGRDFTGKVVVVTGANSGIGFETAKSFALHGAHVILACRNMARASEAVSRILEEWHKAKVEAMTLDLALLRSVQHFAEAFKAKNVPLHVLVCNAATFALPWSLTKDGLETTFQVNHLGHFYLVQLLQDVLCRSAPARVIVVSSESHRFTDINDSLGKLDFSRLSPTKNDYWAMLAYNRSKLCNILFSNELHRRLSPRGVTSNAVHPGNMMYSNIHRSWWVYTLLFTLARPFTKSMQQGAATTVYCAAVPELEGLGGMYFNNCCRCMPSPEAQSEETARTLWALSERLIQERLGSQSG
partner: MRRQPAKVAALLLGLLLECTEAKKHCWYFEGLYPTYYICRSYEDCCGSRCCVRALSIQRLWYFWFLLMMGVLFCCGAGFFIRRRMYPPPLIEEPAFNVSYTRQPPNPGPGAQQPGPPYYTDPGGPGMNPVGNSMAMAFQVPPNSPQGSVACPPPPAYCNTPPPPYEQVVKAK
B2: WW domain binding protein VOPP1 (Homo sapiens), Q96AW1 (parent)
chain: B1 partner
partner: B1 chain

Variants of: B1
Conditions: with vopp1_human VOPP1, Q96AW1
Y33R was tested, and the “effect of a mutation on the interaction” value was “disrupting interaction strength”.

Variants of: B2
Conditions: with wwox_human WWOX, Q9NZC7
Y157A was tested, and the “effect of a mutation on the interaction” value was “decreasing interaction strength”.
For Y119A, the “effect of a mutation on the interaction” value was “with no effect”.
Y165A was tested, and the “effect of a mutation on the interaction” value was “decreasing interaction strength”.

Variants of: B2
Conditions: with wwox_human WWOX
For Y165A, the “effect of a mutation on the interaction” value was “disrupting interaction strength”.
